Reference: publication PMC7642319, “Behavior control of membrane-less protein liquid condensates with metal ion-induced phase separation” (Nature Communications, 2020)

B1: P7A P9A double mutant PRM(H) peptide (peptide)
chain: MKKTPPAVAPRTTSK
B2: P7A mutant PRM(H) peptide (peptide)
chain: MKKTPPAVPPRTTSK
B3: PRM(H) peptide, wild type (peptide)
chain: MKKTPPPVPPRTTSK
B4: proline-rich motif (PRM) peptide, wild type (peptide)
chain: MKKKKTAPTPPKRS
B5: P9A mutant PRM(H) peptide (peptide)
chain: MKKTPPPVAPRTTSK
B6: EE mutant PRM(H) peptide (two Lys residues mutated to acidic EE) (peptide)
chain: MEETPPPVPPRTTSK
B7: ELEL mutant PRM peptide (four Lys residues mutated to acidic ELEL) (peptide)
chain: ELELTAPTPPKRS

molecular target: T1, second SH3 domain from Nck; test: ITC; SH3 domain in the cell, chemically synthesized peptide as titrant in the syringe; PBS pH 7.4, 25 °C; one-site binding model; settings: both partners purified
T1 construct: second SH3 domain of Nck; The methods say that 6His-tagged proteins were purified on Ni-IDA and that the tag could be removed with TEV protease; also called free SH3; SH3 domain proteins; source: E. coli BL21 (DE3), pET-21a, purified (Ni-IDA)

| Kd | Binder |
| --- | --- |
| 131 µM | B1 |
| 19.4 µM | B2 |
| 12.8 µM | B3 |
| 379 µM | B4 |
| 102 µM | B5 |
| 3.32 µM | B6 |
| 121 µM | B7 |
